Test results reported in patent US20250230251A1 (Bristol-Myers Squibb, published 2025).
Values belong to the binder of their own block, whether it stands above or below them.

Assays:
huIL-18Rβ-HisAvi [1] = molecular target: T1, huIL-18Rβ-HisAvi (human, UniProt O95256 20-356, biotinylated in the Octet blocking assay); assay: SPR T200, mAb on anti-hFc, 37C, pH 7; control
T1 construct: Soluble analyte in all SPR runs; captured on streptavidin sensors in the Octet assay; also called human IL-18Rβ; human IL-18Rβ-Avi-His
T1 sequence: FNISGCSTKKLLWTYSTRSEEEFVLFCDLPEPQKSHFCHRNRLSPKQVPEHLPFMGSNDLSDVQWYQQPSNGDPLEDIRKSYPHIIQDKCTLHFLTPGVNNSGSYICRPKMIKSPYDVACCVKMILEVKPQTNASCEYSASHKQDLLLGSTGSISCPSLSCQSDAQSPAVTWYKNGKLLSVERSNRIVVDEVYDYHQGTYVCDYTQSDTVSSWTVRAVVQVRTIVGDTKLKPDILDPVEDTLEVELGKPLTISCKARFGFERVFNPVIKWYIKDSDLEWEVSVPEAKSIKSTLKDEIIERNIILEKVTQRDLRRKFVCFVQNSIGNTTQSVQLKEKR

huIL-18Rβ-HisAvi [2] = molecular target: T1, huIL-18Rβ-HisAvi; assay: SPR T200, mAb on anti-hFc, 37C, pH 7.4; pH 7.4
human IL-18Rβ on cells [3] = molecular target: T2, human IL-18Rβ on cells (human, UniProt O95256 20-599); assay: cell-based or functional assay
T2 sequence: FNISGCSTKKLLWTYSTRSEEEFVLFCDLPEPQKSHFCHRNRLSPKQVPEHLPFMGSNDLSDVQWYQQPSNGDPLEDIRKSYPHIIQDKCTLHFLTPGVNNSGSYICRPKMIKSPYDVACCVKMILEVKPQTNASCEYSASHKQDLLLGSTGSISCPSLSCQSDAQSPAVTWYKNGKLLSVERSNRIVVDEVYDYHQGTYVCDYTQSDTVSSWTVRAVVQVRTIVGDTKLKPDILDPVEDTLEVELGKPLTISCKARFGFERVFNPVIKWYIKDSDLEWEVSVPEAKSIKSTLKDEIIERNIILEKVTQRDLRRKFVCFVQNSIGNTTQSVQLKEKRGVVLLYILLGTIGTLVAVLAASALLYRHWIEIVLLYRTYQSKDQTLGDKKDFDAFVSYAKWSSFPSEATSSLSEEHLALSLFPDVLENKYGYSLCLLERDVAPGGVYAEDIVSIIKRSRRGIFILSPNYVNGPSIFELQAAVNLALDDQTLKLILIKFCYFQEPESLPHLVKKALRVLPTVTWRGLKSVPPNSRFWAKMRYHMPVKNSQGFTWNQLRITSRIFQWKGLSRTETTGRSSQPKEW

[4] = molecular target: T3, cynomolgus monkey IL-18Rβ on cells (cynomolgus monkey, UniProt A0A7N9D6S0 20-598); assay: cell-based or functional assay
T3 sequence: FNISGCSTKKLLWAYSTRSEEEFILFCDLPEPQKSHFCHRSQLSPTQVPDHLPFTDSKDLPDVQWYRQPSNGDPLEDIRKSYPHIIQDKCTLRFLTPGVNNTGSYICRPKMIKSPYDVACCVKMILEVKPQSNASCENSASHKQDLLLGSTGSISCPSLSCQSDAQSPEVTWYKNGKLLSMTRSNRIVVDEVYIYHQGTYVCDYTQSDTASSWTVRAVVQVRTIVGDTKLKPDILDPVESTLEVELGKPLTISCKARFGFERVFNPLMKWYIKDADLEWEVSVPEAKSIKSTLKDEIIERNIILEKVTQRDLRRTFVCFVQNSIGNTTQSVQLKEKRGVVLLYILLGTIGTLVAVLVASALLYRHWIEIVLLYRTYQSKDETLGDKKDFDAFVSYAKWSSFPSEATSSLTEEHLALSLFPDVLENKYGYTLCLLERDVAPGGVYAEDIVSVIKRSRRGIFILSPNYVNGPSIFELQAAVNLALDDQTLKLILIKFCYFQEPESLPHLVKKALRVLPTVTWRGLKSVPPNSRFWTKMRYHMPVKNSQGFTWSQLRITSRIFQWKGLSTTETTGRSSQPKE

human IL-18Rβ on cells [5] = molecular target: T2, human IL-18Rβ on cells; assay: cell-based or functional assay; remark: listed apart in the source
huIL-18Rβ-HisAvi [6] = molecular target: T1, huIL-18Rβ-HisAvi; assay: SPR T200, pH 7; sample 4 w 4C
huIL-18Rβ-HisAvi [7] = molecular target: T1, huIL-18Rβ-HisAvi; assay: SPR T200, pH 7; sample 4 w 40C

apparent Kd (pooled screen) (huIL-18Rβ-HisAvi [1]): 0.18 nM | apparent koff (pooled screen) (huIL-18Rβ-HisAvi [1]): 5.2e-05 s⁻¹ | apparent kon (pooled screen) (huIL-18Rβ-HisAvi [1]): 280000 M⁻¹ s⁻¹ | apparent kon (pooled screen) (huIL-18Rβ-HisAvi [2]): 330000 M⁻¹ s⁻¹
B1: P20 (antibody, human IgG1, kappa)
heavy: QVQLQQSGPGLVKPSETLSLTCTVSGGSINNYYWSWIRQPPGKGLEWIGYIFYSGTTNYNPSLKSRVTISVDTSKNQFSLKLSSVTAADTAVYYCARDVGIAARNSYYYVMDVWGQGTTVTVSSASTKGPSVFPLAPSSKSTSGGTAALGCLVKDYFPEPVTVSWNSGALTSGVHTFPAVLQSSGLYSLSSVVTVPSSSLGTQTYICNVNHKPSNTKVDKRVEPKSCDKTHTCPPCPAPEAEGAPSVFLFPPKPKDTLMISRTPEVTCVVVDVSHEDPEVKFNWYVDGVEVHNAKTKPREEQYNSTYRVVSVLTVLHQDWLNGKEYKCKVSNKALPAPIEKTISKAKGQPREPQVYTLPPSREEMTKNQVSLTCLVKGFYPSDIAVEWESNGQPENNYKTTPPVLDSDGSFFLYSKLTVDKSRWQQGNVFSCSVMHEALHNHYTQKSLSLSPG
light: AIQLTQSPSSLSASVGDRVTITCRASQGISSALAWYQQKPGKAPKFLIYDASSLESGVPSRFSGSGSGTDFTLTISSLQPEDFATYYCQQFNSYPITFGQGTRLEIKRTVAAPSVFIFPPSDEQLKSGTASVVCLLNNFYPREAKVQWKVDNALQSGNSQESVTEQDSKDSTYSLSSTLTLSKADYEKHKVYACEVTHQGLSSPVTKSFNRGEC
notes: Human IgG

IC50, IFNg, human whole blood LPS+IL-12, Average (human IL-18Rβ on cells [3]): 1.6 nM | IC50, IFNg, human whole blood LPS+IL-12, donor C163 (human IL-18Rβ on cells [3]): 1.1 nM | IC50, IFNg, human whole blood LPS+IL-12, donor C175 (human IL-18Rβ on cells [3]): 1.48 nM | IC50, IFNg, human whole blood LPS+IL-12, donor C177 (human IL-18Rβ on cells [3]): 0.47 nM | IC50, IFNg, human whole blood LPS+IL-12, donor C198 (human IL-18Rβ on cells [3]): 4.9 nM | IC50, IFNg, human whole blood LPS+IL-12, donor C200 (human IL-18Rβ on cells [3]): 2.55 nM | IC50, IFNg, human whole blood LPS+IL-12, donor C205 (human IL-18Rβ on cells [3]): 1.56 nM | IC50, IFNg, human whole blood LPS+IL-12, donor C215 (human IL-18Rβ on cells [3]): 1.54 nM | IC50, IFNg, human whole blood LPS+IL-12, donor C223 (human IL-18Rβ on cells [3]): 0.83 nM | IC50, IFNg, human whole blood LPS+IL-12, donor C229 (human IL-18Rβ on cells [3]): 1.3 nM | IC50, IFNg, human whole blood LPS+IL-12, donor C238 (human IL-18Rβ on cells [3]): 0.57 nM | IC50, IFNg, human whole blood LPS+IL-12, donor C241 (human IL-18Rβ on cells [3]): 1.2 nM | IC50, IFNg, human whole blood LPS+IL-12, donor C245 (human IL-18Rβ on cells [3]): 1.22 nM | IC50, IFNg, human whole blood LPS+IL-12, donor C251 (human IL-18Rβ on cells [3]): 1.7 nM | IC50, IFNg, human whole blood LPS+IL-12, donor C256 (human IL-18Rβ on cells [3]): 1.38 nM | IC50, IFNg, human whole blood LPS+IL-12, donor C257 (human IL-18Rβ on cells [3]): 2.22 nM | IC50, IFNg, cyno whole blood IL-18+IL-12, Average [4]: 4.3 nM | IC50, IFNg, cyno whole blood IL-18+IL-12, donor B7619 (f) [4]: 5.1 nM | IC50, IFNg, cyno whole blood IL-18+IL-12, donor B8476 (m) [4]: 3.3 nM | IC50, IFNg, cyno whole blood IL-18+IL-12, donor B9301 (f) [4]: 4.7 nM | IC50, IFNg, cyno whole blood IL-18+IL-12, donor B9313 (m) [4]: 2.4 nM | IC50, IFNg, cyno whole blood IL-18+IL-12, donor B9447 (m) [4]: 5.1 nM | IC50, IFNg, cyno whole blood IL-18+IL-12, donor B9496 (m) [4]: 1.9 nM | IC50, IFNg, cyno whole blood IL-18+IL-12, donor B21333 (f) [4]: 1.8 nM | IC50, IFNg, cyno whole blood IL-18+IL-12, donor B21374 (f) [4]: 2.5 nM | IC50, IFNg, cyno whole blood IL-18+IL-12, donor B21394 (f) [4]: 6 nM | IC50, IFNg, cyno whole blood IL-18+IL-12, donor B21411 (f) [4]: 5.1 nM | IC50, IFNg, cyno whole blood IL-18+IL-12, donor B21435 (f) [4]: 10.5 nM | IC50, IFNg, cyno whole blood IL-18+IL-12, donor B21438 (f) [4]: 2.2 nM | IC50, IFNg, cyno whole blood IL-18+IL-12, donor B22017 (f) [4]: 5.7 nM | IC50, IFNg, cyno whole blood IL-18+IL-12, donor B22187 (m) [4]: 3.9 nM | Average IC50, IFNg, Crohn's disease LPLs, IL-18+IL-12 (human IL-18Rβ on cells [5]): 18.3 nM | Average IC50, IFNg, healthy (non-IBD) LPLs, IL-18+IL-12 (human IL-18Rβ on cells [5]): 39.8 nM | IC50, IFNg, Crohn's disease LPLs, IL-18+IL-12, replicate 1 (human IL-18Rβ on cells [5]): 3.82 nM | IC50, IFNg, Crohn's disease LPLs, IL-18+IL-12, replicate 2 (human IL-18Rβ on cells [5]): 15.4 nM | IC50, IFNg, Crohn's disease LPLs, IL-18+IL-12, replicate 3 (human IL-18Rβ on cells [5]): 89.9 nM | IC50, IFNg, Crohn's disease LPLs, IL-18+IL-12, replicate 4 (human IL-18Rβ on cells [5]): 9.47 nM | IC50, IFNg, Crohn's disease LPLs, IL-18+IL-12, replicate 5 (human IL-18Rβ on cells [5]): 19.6 nM | IC50, IFNg, Crohn's disease LPLs, IL-18+IL-12, replicate 6 (human IL-18Rβ on cells [5]): 5.68 nM | IC50, IFNg, Crohn's disease LPLs, IL-18+IL-12, replicate 7 (human IL-18Rβ on cells [5]): 0.9 nM | IC50, IFNg, Crohn's disease LPLs, IL-18+IL-12, replicate 8 (human IL-18Rβ on cells [5]): 1.33 nM | IC50, IFNg, healthy (non-IBD) LPLs, IL-18+IL-12, replicate 1 (human IL-18Rβ on cells [5]): 12.8 nM | IC50, IFNg, healthy (non-IBD) LPLs, IL-18+IL-12, replicate 2 (human IL-18Rβ on cells [5]): 9.57 nM | IC50, IFNg, healthy (non-IBD) LPLs, IL-18+IL-12, replicate 3 (human IL-18Rβ on cells [5]): 44.8 nM | IC50, IFNg, healthy (non-IBD) LPLs, IL-18+IL-12, replicate 4 (human IL-18Rβ on cells [5]): 132 nM | IC50, IFNg, healthy (non-IBD) LPLs, IL-18+IL-12, replicate 5 (human IL-18Rβ on cells [5]): 0.0116 nM | Kd (huIL-18Rβ-HisAvi [6]): 0.2 nM | koff (huIL-18Rβ-HisAvi [6]): 5.7e-05 s⁻¹ | kon (huIL-18Rβ-HisAvi [6]): 280000 M⁻¹ s⁻¹ | Kd (huIL-18Rβ-HisAvi [7]): 0.5 nM | koff (huIL-18Rβ-HisAvi [7]): 0.00014 s⁻¹ | kon (huIL-18Rβ-HisAvi [7]): 290000 M⁻¹ s⁻¹
B2: P20-V1 (antibody, human IgG1, kappa, V domains shown)
VH: QVQLQESGPGLVKPSETLSLTCTVSGGSINNYYWSWIRQPPGKGLEWIGYIFYSGTTNYNPSLKSRVTISVDTSKNQFSLKLSSVTAADTAVYYCARDVGIAARNSYYYVMDVWGQGTTVTVSS
VL: AIQLTQSPSSLSASVGDRVTITCRASQGISSALAWYQQKPGKAPKFLIYEASSLESGVPSRFSGSGSGTDFTLTISSLQPEDFATYYCQQFNSYPITFGQGTRLEIKR
notes: Variant of P20
Average IC50, IFNg, ulcerative colitis LPLs, IL-18+IL-12 (human IL-18Rβ on cells [5]): 16.5 nM | IC50, IFNg, ulcerative colitis LPLs, IL-18+IL-12, replicate 1 (human IL-18Rβ on cells [5]): 34.4 nM | IC50, IFNg, ulcerative colitis LPLs, IL-18+IL-12, replicate 2 (human IL-18Rβ on cells [5]): 10.8 nM | IC50, IFNg, ulcerative colitis LPLs, IL-18+IL-12, replicate 3 (human IL-18Rβ on cells [5]): 10.3 nM | IC50, IFNg, ulcerative colitis LPLs, IL-18+IL-12, replicate 4 (human IL-18Rβ on cells [5]): 2.63 nM | IC50, IFNg, ulcerative colitis LPLs, IL-18+IL-12, replicate 5 (human IL-18Rβ on cells [5]): 0.0024 nM | IC50, IFNg, ulcerative colitis LPLs, IL-18+IL-12, replicate 6 (human IL-18Rβ on cells [5]): 0.402 nM | IC50, IFNg, ulcerative colitis LPLs, IL-18+IL-12, replicate 7 (human IL-18Rβ on cells [5]): 56.7 nM
